Measured values from IntAct's records for PubMed 22187461.

B1: 26S proteasome non-ATPase regulatory subunit 11 (Drosophila melanogaster (Fruit fly)), Q7KLV9-1 (parent)
chain: MAGATLFERAQALSSVNREEQDSSLLNKLVRDQEGAENDEERIRIKEQGILQQGELYKQEGKAKELADLIKVTRPFLSSISKAKAAKLVRSLVDMFLDMDAGTGIEVQLCKDCIEWAKQEKRTFLRQSLEARLIALYFDTALYTEALALGAQLLRELKKLDDKNLLVEVQLLESKTYHALSNLPKARAALTSARTTANAIYCPPKVQGALDLQSGILHAADERDFKTAFSYFYEAFEGFDSVDSVKALTSLKYMLLCKIMLGQSDDVNQLVSGKLAITYSGRDIDAMKSVAEASHKRSLADFQAALKEYKKELAEDVIVQAHLGTLYDTMLEQNLCRIIEPYSRVQVAHVAESIQLPMPQVEKKLSQMILDKKFSGILDQGEGVLIVFEETPVDKTYERVLETIQSMGKVVDTLYQKAKKLS
partner: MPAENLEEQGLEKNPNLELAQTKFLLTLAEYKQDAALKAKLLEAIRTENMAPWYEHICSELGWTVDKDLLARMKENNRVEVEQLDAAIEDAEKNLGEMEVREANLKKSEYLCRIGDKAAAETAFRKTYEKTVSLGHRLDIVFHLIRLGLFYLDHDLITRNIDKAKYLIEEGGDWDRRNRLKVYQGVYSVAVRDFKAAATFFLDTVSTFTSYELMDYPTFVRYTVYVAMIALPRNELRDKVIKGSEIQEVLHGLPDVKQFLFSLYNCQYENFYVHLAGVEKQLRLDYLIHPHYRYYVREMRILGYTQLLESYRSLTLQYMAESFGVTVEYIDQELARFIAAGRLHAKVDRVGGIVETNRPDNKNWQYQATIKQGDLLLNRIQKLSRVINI

Variants of: B1
Details: with psmd6_drome Rpn7, Q9V3G7

effect of a mutation on the interaction | Variant
disrupting interaction strength | MAGATLFERAQALSSVNREEQDSSLLNKLVRDQEGAENDEERIRIKEQGILQQGELYKQEGKAKELADLIKVTRPFLSSISKAKAAKLVRSLVDMFLDMDAGTGIEVQLCKDCIEWAKQEKRTFLRQSLEARLIALYFDTALYTEALALGAQLLRELKKLDDKNLLVEVQLLESKTYHALSNLPKARAALTSARTTANAIYCPPKVQGALDLQSGILHAADERDFKTAFSYFYEAFEGFDSVDSVKALTSLKYMLLCKIMLGQSDDVNQLVSGKLAITYSGRDIDAMKSVAEASHKRSLADFQAALKEYKKELAEDVIVQAHLGTLYDTMLEQNLCRIIEPYSRVQVAHVAESIQLPMPQVEKKLKQMAADKKFSGILDQGEGVLIVFEETPVDKTYERVLETIQSMGKVVDTLYQKAKKLS [S366K;I369A;L370A]
